Results on one protein are retold here after article PMC7521651, “Intracerebroventricular enzyme replacement therapy with β-galactosidase reverses brain pathologies due to GM1 gangliosidosis in mice” (The Journal of Biological Chemistry, 2019).

Series [1] concerns the molecule itself. Kind of series: AUC; sedimentation equilibrium, 12,000 and 14,000 rpm, 20 mM sodium acetate pH 5, 150 mM NaCl, 3 mM KCl; dimer to monomers, limit calculated from detection of 10% monomer.
Series [2] deals with the molecule itself. The series can be described thus: AUC; sedimentation equilibrium, 12,000 and 14,000 rpm, 25 °C, 20 mM sodium phosphate pH 7.4, 150 mM NaCl, 3 mM KCl; monomer-dimer equilibrium model (SEDPHAT); dimer to monomers.

B1: recombinant human β-gal (rhβ-gal) (enzyme)
chain: QRMFEIDYSRDSFLKDGQPFRYISGSIHYSRVPRFYWKDRLLKMKMAGLNAIQTYVPWNFHEPWPGQYQFSEDHDVEYFLRLAHELGLLVILRPGPYICAEWEMGGLPAWLLEKESILLRSSDPDYLAAVDKWLGVLLPKMKPLLYQNGGPVITVQVENEYGSYFACDFDYLRFLQKRFRHHLGDDVVLFTTDGAHKTFLKCGALQGLYTTVDFGTGSNITDAFLSQRKCEPKGPLINSEFYTGWLDHWGQPHSTIKTEAVASSLYDILARGASVNLYMFIGGTNFAYWNGANSPYAAQPTSYDYDAPLSEAGDLTEKYFALRNIIQKFEKVPEGPIPPSTPKFAYGKVTLEKLKTVGAALDILCPSGPIKSLYPLTFIQVKQHYGFVLYRTTLPQDCSNPAPLSSPLNGVHDRAYVAVDGIPQGVLERNNVITLNITGKAGATLDLLVENMGRVNYGAYINDFKGLVSNLTLSSNILTDWTIFPLDTEDAVRSHLGGWGHRDSGHHDEAWAHNSSNYTLPAFYMGNFSIPSGIPDLPQDTFIQFPGWTKGQVWINGFNLGRYWPARGPQLTLFVPQHILMTSAPNTITVLELEWAPCSSDDPELCAVTFVDRPVIGSSVTYDHPSKPVEKRLMPPPPQKNKDSWLDHV
modifications: N-linked glycans; about 9% of the total glycan composition is bisphosphorylated oligomannose (BPM7)
notes: human lysosomal β-galactosidase (GLB1), secreted from CHO cells as the precursor, nonlysosomal enzyme (not the lysosomally processed mature form); No tag is mentioned; PDB 3THC is another preparation, treated by limited proteolysis, with residues 648-677 not determined; also called β-galactosidase; lysosomal β-gal
Turning to B1, the values for the Kd in series [1] and in series [2] were at most 2 nM and 243 nM, respectively. Moreover, in series [1], the “stoichiometry N” value is 2.

The Kd is the concentration at which binding is half-saturated. One may read the stoichiometry N as the number of molecules, sites or subunits per partner or assembly.
